Assay [1] has as its target T1, murine CD8a (mouse, UniProt P01731 28-247).
T1 construct: whole, on cells; also called mCD8a; mCD8
Nature of the assay: flow cytometry on murine splenocytes, gated on CD8+, detected with anti-His Tag antibody.

Assay [2] has as its target T2, Ad5FDgT fiber (Human Adenovirus 5 fiber with DogTag inserted at the HI loop domain of the fiber knob) (Human Adenovirus 5).
T2 chain: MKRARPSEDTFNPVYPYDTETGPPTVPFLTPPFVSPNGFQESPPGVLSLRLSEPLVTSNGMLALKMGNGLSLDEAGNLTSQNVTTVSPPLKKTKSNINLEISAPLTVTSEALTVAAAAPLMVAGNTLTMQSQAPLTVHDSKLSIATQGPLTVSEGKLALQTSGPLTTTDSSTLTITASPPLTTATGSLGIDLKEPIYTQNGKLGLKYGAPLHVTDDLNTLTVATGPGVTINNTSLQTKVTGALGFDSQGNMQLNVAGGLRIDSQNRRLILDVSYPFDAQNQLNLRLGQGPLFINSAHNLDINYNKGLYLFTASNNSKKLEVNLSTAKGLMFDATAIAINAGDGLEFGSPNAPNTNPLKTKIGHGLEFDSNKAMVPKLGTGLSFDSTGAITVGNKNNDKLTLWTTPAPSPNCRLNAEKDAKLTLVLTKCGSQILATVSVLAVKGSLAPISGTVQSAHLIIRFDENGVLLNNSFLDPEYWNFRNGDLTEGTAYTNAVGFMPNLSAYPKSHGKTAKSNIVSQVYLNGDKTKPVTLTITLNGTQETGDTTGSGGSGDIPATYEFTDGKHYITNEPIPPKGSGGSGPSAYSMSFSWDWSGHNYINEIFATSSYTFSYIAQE
Nature of the assay: SDS-PAGE gel shift of the fiber band after co-incubation at room temperature.

Assay [3] concerns the target T2, Ad5FDgT fiber (Human Adenovirus 5 fiber …). Nature of the assay: covalent DogCatcher/DogTag conjugation to the virus capsid.
The target is the same in assay [4]. Nature of the assay: SDS-PAGE (complete shift of the fiber-DogTag band) and western blot against the fiber tail, purified Ad-Ab complexes. Background: A western blot detects proteins with antibodies after separation by electrophoresis.
Assay [5] has as its target T1, murine CD8a. Nature of the assay: cell-based or functional assay.
In assay [6] the target is T3, murine CD19 (mouse, UniProt P25918 19-547).
T3 sequence: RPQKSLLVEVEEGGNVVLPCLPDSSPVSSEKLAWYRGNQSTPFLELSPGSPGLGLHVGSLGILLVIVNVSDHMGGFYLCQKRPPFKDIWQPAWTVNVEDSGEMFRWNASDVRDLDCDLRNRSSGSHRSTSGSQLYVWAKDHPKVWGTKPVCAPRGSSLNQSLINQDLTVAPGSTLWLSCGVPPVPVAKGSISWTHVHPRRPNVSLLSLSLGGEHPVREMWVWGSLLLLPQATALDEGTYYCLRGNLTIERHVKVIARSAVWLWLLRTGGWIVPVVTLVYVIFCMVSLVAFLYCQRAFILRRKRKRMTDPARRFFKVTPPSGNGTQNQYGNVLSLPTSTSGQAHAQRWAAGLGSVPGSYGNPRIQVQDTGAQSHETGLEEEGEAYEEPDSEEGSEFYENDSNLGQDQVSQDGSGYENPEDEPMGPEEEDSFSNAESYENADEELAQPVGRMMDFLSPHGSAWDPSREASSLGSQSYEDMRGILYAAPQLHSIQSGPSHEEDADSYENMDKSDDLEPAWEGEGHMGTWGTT
Nature of the assay: cell-based or functional assay.

This note sets out measurements from patent EP4680727A2 (dated 2026).

T1 sequence (P01731 28-247): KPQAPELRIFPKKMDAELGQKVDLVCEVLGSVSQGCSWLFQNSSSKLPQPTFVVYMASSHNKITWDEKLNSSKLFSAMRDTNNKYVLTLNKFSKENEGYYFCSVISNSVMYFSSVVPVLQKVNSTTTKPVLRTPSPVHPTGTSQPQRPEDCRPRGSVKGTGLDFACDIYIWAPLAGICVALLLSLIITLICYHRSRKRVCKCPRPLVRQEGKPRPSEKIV

B1: 2.43DgC (2.43 scFv fused to DogCatcher; IGHV1-46 signal sequence-2.43 scFv-(G4S)3-DgC-6xHis) (scFv)
scFv: EVQLVESGGGLVQPGRSLKLSCAASGFTFSNYYMAWVRQAPTKGLEWVAYINTGGGTTYYRDSVKGRFTISRDDAKSTLYLQMDSLRSEDTATYYCTTAIGYYFDYWGQGVMVTVSSGGGGSGGGGSGGGGSDIQLTQSPASLSASLGETVSIECLASEDIYSYLAWYQQKPGKSPQVLIYAANRLQDGVPSRFSGSGSGTQYSLKISGMQPEDEGDYFCLQGSKFPYTFGAGTKLELKGGGGSGGGGSGGGGSAMKLGEIEFIKVDKTDKKPLRGAVFSLQKQHPDYPDIYGAIDQNGTYQDVRTGEDGKLTFTNLSDGKYRLIENSEPPGYKPVQNKPIVSFRIVDGEVRDVTSIVPQGSSGSHHHHHH
notes: also called 2.43 scFv-DogCatcher
For B1, in assay [1], the binding result was “binds”.

B2: DogCatcher (bacterially produced, 6xHis-TEV-DogCatcher) (other)
chain: MSYYHHHHHHDYDIPTTENLYFQGAMKLGEIEFIKVDKTDKKPLRGAVFSLQKQHPDYPDIYGAIDQNGTYQDVRTGEDGKLTFTNLSDGKYRLIENSEPPGYKPVQNKPIVSFRIVDGEVRDVTSIVPQ
notes: also called DgC; pDEST14-DogCatcher product
For the molecule B2, the binding result in assay [2] was “binds”.

B3: 18B12DgC (18B12 anti-murine CD20 scFv fused to DogCatcher; IL-2 signal sequence-18B12 scFV-(G4S)3-DgC-6xHis) (scFv)
scFv: QVQLQQPGAELVRPGTSVKLSCKASGYTFTSYWMHWIKQRPGQGLEWIGVIDPSDNYTKYNQKFKGKATLTVDTSSSTAYMQLSSLTSEDSAVYFCAREGYYGSSPWFAYWGQGTLVTVSSGGGGSGGGGSGGGGSQIVMSQSPAILSASPGEKVTMTCRARSSVSYIHWYQQKPGSSPKPWIYATSNLASGVPGRFSGSGSGTSYSLTITRVEAEDAATYYCQQWSSKPPTFGGGTKLEIKGGGGSGGGGSGGGGSAMKLGEIEFIKVDKTDKKPLRGAVFSLQKQHPDYPDIYGAIDQNGTYQDVRTGEDGKLTFTNLSDGKYRLIENSEPPGYKPVQNKPIVSFRIVDGEVRDVTSIVPQGSSGSHHHHHH
notes: also called 18B12 scFv-DogCatcher
With B3, the binding result in assay [3] is given as “binds”.

B4: FMC63 scFv-DogCatcher fusion (anti-human CD19; IL-2 signal sequence-FMC63 scFv-(G4S)3-DgC-6xHis) (scFv)
scFv: DIQMTQTTSSLSASLGDRVTISCRASQDISKYLNWYQQKPDGTVKLLIYHTSRLHSGVPSRFSGSGSGTDYSLTISNLEQEDIATYFCQQGNTLPYTFGGGTKLEITGGGGSGGGGSGGGGSEVKLQESGPGLVAPSQSLSVTCTVSGVSLPDYGVSWIRQPPRKGLEWLGVIWGSETTYYNSALKSRLTIIKDNSKSQVFLKMNSLQTDDTAIYYCAKHYYYGGSYAMDYWGQGTSVTVSSGGGGSGGGGSGGGGSAMKLGEIEFIKVDKTDKKPLRGAVFSLQKQHPDYPDIYGAIDQNGTYQDVRTGEDGKLTFTNLSDGKYRLIENSEPPGYKPVQNKPIVSFRIVDGEVRDVTSIVPQGSSGSHHHHHH
notes: also called FMC163DgC (plasmid name as printed)
In the case of B4, the binding result in assay [3] is on record as “binds”.

B5: YTS169DgC (YTS169 anti-murine CD8a scFv fused to DogCatcher; IGHV1-46 signal sequence-YTS169 scFv-(G4S)3-DgC-6xHis) (scFv)
scFv: EVKLQESGGGLVQPGRSLKLSCAASGFNFNDYWMGWVRQAPGKGLEWIGEINKDSSTINYTPSLKDKFTISRDNAQNTLYLQMSKLGSEDTAIYYCARARGMMVLIIPHYFDYWGQGVMVTVSSGGGGSGGGGSGGGGSDIVLTQSPAMAMSPGERITISCRASESVSTRMHWYQQKPGQQPKLLIYGASNLESGVPARFSGSGSGTDFTLTIDPVEANDTATYFCQQSWYDPWTFGGGTKLELKGGGGSGGGGSGGGGSAMKLGEIEFIKVDKTDKKPLRGAVFSLQKQHPDYPDIYGAIDQNGTYQDVRTGEDGKLTFTNLSDGKYRLIENSEPPGYKPVQNKPIVSFRIVDGEVRDVTSIVPQGSSGSHHHHHH
notes: also called YTS169 scFv-DogCatcher; anti-mCD8 YTS169
Regarding B5, the binding result in assay [4] is listed as “binds”. Also, the “gene expression in CD8a+ T cells in vivo” value in assay [5] was about 2 fold.

B6: 1D3DgC (1D3 anti-murine CD19 scFv fused to DogCatcher; IL-2 signal sequence-1D3 scFv-(G4S)3-DgC-6xHis) (scFv)
scFv: DIQMTQSPASLSTSLGETVTIQCQASEDIYSGLAWYQQKPGKSPQLLIYGASDLQDGVPSRFSGSGSGTQYSLKITSMQTEDEGVYFCQQGLTYPRTFGGGTKLELKGGGGSGGGGSGGGGSEVQLQQSGAELVRPGTSVKLSCKVSGDTITFYYMHFVKQRPGQGLEWIGRIDPEDESTKYSEKFKNKATLTADTSSNTAYLKLSSLTSEDTATYFCIYGGYYFDYWGQGVMVTVSSGGGGSGGGGSGGGGSAMKLGEIEFIKVDKTDKKPLRGAVFSLQKQHPDYPDIYGAIDQNGTYQDVRTGEDGKLTFTNLSDGKYRLIENSEPPGYKPVQNKPIVSFRIVDGEVRDVTSIVPQGSSGSHHHHHH
notes: also called lD3DgC; 1D3 scFv-DogCatcher
Regarding B6, in assay [6], the “gene expression in B cells in vivo, against the parent vector” value is about 2 fold. For the same molecule, the binding result in assay [3] is reported as “binds”.
